Assay results from publication PMC10652100, “Bacterial RNA-free RNase P: Structural and functional characterization of multiple oligomeric forms of a minimal protein-only ribonuclease P” (The Journal of Biological Chemistry, 2023).

What was measured:
[1] = biological target: the molecule itself; assay: native MS; His-tagged Hth1307 in 200 mM ammonium acetate pH 7, nano-electrospray, Q-Exactive UHMR; 500-1000 nM protein
[2] = biological target: the molecule itself; assay: SEC; analytical, Superdex 200 Increase 5/150 GL, 50 mM Tris pH 8.5, 150 mM NaCl, 1 mM TCEP; Hth1307 from 93.6 nM upwards; A280
[3] = biological target: the molecule itself; assay: crystal structure; lower molecular weight fraction of Hth1307; 2 M ammonium sulfate, 0.1 M Bis-Tris pH 5.5, 4 C; space group C2221, two protomers in the asymmetric unit; tetramer by crystal symmetry
[4] = biological target: the molecule itself; assay: SEC; oligomers seen when purifying Aq880 (Superdex 200 pg 16/600; 50 mM Tris pH 8.5, 150 mM NaCl, 1 mM TCEP)

B1: His-tagged Hth1307 (enzyme, Hydrogenobacter thermophilus)
chain: MDTFVLDTSVFTNPDVYHQFEEDQLGAIENFISLASHTNANFFMPTSVYYEFTKMVSLGDLAPKFELVVRIRSPRKWGLMVPAEFLYEFIEEVRYRINKGLRIAEEHTKEAGKLAEEEVGRVVNRLREKYREALRAGIIDSKEDVDVLLLSYELDAILVSGDEGLRKWADRVGIKLIDPKNLRYIMENLTKVGR
notes: HARP (RNA-free RNase P) of Hydrogenobacter thermophilus, Hth1307; gene synthesised by Integrated DNA Technologies; Same construct as m2 (pMCSG7, N-terminal His6 and TEV site) with the tag left on; also called His-tagged Hydrogenobacter thermophilus HARP; source: E. coli BL21 Rosetta DE3, purified; not shown: His6, N-terminal, kept; copies: 14
stoichiometry N [1]: 14

B2: Hydrogenobacter thermophilus HARP (Hth1307) (enzyme)
chain: B1 chain
notes: HARP (RNA-free RNase P) of Hydrogenobacter thermophilus, Hth1307; gene synthesised by Integrated DNA Technologies; Cloned into pMCSG7 (N-terminal His6 tag and TEV site); the tag was removed with TEV protease by the general purification protocol; also called Ht HARP; source: E. coli BL21 Rosetta DE3, purified (Ni-Sepharose, DEAE, TEV cleavage, second Ni-Sepharose, SEC); not shown: His6, …
stoichiometry N [2]: 14
stoichiometry N [3]: 4

B3: Aquifex aeolicus HARP (Aq880) (enzyme)
chain: MDVFVLDTSVFTNPEIYRTFEEDQRGAMETFIHLALNSRAEFYMPTSVYTEMRKIMDVGELWAEFEMVVKIRSPRRFQLTVPADFLYEFIEELRYRINKGLRIAEEHTREASGCEDVGKLIARLREKYREALRQGILDSKEDVDVLLLAYELDGVLVSADEGLRTWADKIGIKLIDPKNFKNILESLVRHRF
notes: HARP (RNA-free RNase P) of Aquifex aeolicus, Aq880, 23 kDa; gene synthesised by Integrated DNA Technologies; Cloned into pMCSG7 (N-terminal His6 tag and TEV site); the tag was removed with TEV protease, and residues of the site may be left at the N-terminus (surmised); also called HARP from A. aeolicus; Homolog of Aquifex RNase P; source: E. coli BL21 Rosetta DE3, purified (Ni-Sepharose, DEAE, …)
stoichiometry N [4]: 4
